Test results: publication PMC1373645, “Lactate production yield from engineered yeasts is dependent from the host background, the lactate dehydrogenase source and the lactate export” (Microbial Cell Factories, 2006)

Substrate: CC(=O)C(=O)O
Test: cells, lysate or membranes
Assay type: biochemical, Lactiplantibacillus plantarum
Conditions: NADH, acetate buffer pH 5.6, 25 °C, no fructose 1,6-diphosphate, Table 2 prints 1,50

B1: L. plantarum LDH (LpLDH, plLDH) (Lactiplantibacillus plantarum WCFS1; D94G) (protein)
chain: MSSMPNHQKVVLVGDGAVGSSYAFAMAQQGIAEEFVIVDVVKDRTKGDALDLEDAQAFTAPKKIYSGEYSDCKDADLVVITAGAPQKPGESRLGLVNKNLNILSSIVKPVVDSGFDGIFLVAANPVDILTYATWKFSGFPKDRVIGSGTSLDSSRLRVALGKQFNVDPRSVDAYIMGEHGDSEFAAYSTATIGTRPVRDVAKEQGVSDEDLAKLEDGVRNKAYDIINLKGATFYGIGTALMRISKAILRDENAVLPVGAYMDGQYGLNDIYIGTPAVIGGTGLKQIIESPLSADELKKMQDSAATLKKVLNDGLAELENK
notes: full length, TTG start changed to ATG, untagged, expressed in S. cerevisiae GRF18U; crude cell extract; homotetramer
Km: 1010 µM
